Residue numbers refer to the chain shown, from its start.

This note sets out measurements from patent US20110251266, “APTAMER FOR NGF AND USE THEREOF” (Shionogi & Co., Ltd., published 2011).

For data set [1], the target named is T1, beta-NGF (nerve growth factor) (Homo sapiens, UniProt P01138 P01138:122-241). The data set is described as follows: SPR; blocks NGF-TrkA and NGF-P75. The settings on record: tags: R&D Systems; chain copies: 2. On the procedure: As directed in BIAcore Company's protocol, Protein A (21181, PIERCE) was immobilized on a CM5 sensor chip. About 1100 RU of human Trk A-Fc fused with the Fc portion of IgG (175-TK, R&D systems) was immobilized thereon. As the analyte, a mixture of NGF (0.1 μM) and each aptamer (0.33 μM) was injected after being allowed to stand for 30 minutes. […] When NGF binds stronger to a receptor than an aptamer, the aptamer may be removed and NGF may bind to the receptor. […] Using the binding amount of NGF and NGF receptor without an aptamer as 100, the binding amount of NGF and NGF receptor added with an aptamer was determined as a correction value. Here, the binding amount is the RU value at the peak top of the sensorgram of BIAcore (RU value immediately after completion of NGF injection). […] A similar experiment was performed for another receptor P75 (p75-Fc; R&D systems).
T1 sequence (P01138 122-241, one chain of several): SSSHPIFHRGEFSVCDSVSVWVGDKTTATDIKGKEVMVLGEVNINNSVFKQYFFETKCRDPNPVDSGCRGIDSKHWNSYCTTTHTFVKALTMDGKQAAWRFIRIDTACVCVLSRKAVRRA

Data set [2] has as its target T1, beta-NGF (nerve growth factor). The data set is described as follows: cell_activity; Neuroscreen-1 neurite outgrowth. The settings on record: tags: R&D Systems human NGF; chain copies: 2. On the procedure: The neurite outgrowth inhibitory activity of aptamer was evaluated by using Neuroscreen-1 cell, which is a subclone of PC-12 cells. 2500 Cells per well were cultured for one day in an RPMI-1640 medium containing 2.5% horse serum and 1.25% fetal bovine serum in a 96 well flat-bottom plate coated with collagen type IV. A mixed solution of NGF (final concentration 15 ng/ml or 1.1 nM) prereacted in a serum-free RPMI-1640 medium at room temperature or 37° C. for 30 min to 1 hr and an aptamer (final concentration 500-3 nM) was added. Two or three days later, the cytoplasm and nuclei were stained using Cellomics Neurite Outgrowth Kits (manufactured by Thermo Scientific), and neurite length per cell was measured by Cellomics ArrayScan VTI (manufactured by Thermo Scientific). With the neurite length per cell obtained by culturing the cell for 2 days with the addition of NGF alone as inhibitory activity 0%, and that of the cell obtained by NGF free culture as inhibitory activity 100%, the inhibitory activity of the aptamer was calculated from the neurite length per cell obtained by culturing with the addition of NGF and the aptamer in mixture. […] When the inhibitory activity was 0% or below, ‘0%’ is indicated. When it was not less than 100%, ‘100%’ is indicated. The 50% inhibitory concentration was determined from the concentrations at two, above and below points sandwiching the 50% inhibitory activity.

B1: SEQ57 aptamer (ssRNA)
RNA: GGGAGAACUUCGACCAGAAGUUUGAAAAAAACCCAAACACCGAAGCACAAAUAUGUGCGCAUACAUGGAUCCUCA
modifications: 2'-F all pyrimidines
As to B1, the activity in data set [1] is not below 60 % inhibition.

B2: SEQ49 aptamer (ssRNA)
RNA: GGGAGAACUUCGACCAGAAGUGAAAGAAACUCCCAAGACGGUAACGAAAGUAUGUGCGCAUACAUGGAUCCUCA
modifications: 2'-F all pyrimidines
Take B2: in data set [1], the activity was not below 60 % inhibition.

B3: SEQ81 aptamer (ssRNA)
RNA: GGGAGAACUUCGACCAGAAGGAGAUGACUGUGUAACCACAGUAUGAAAUAAACUCUAUGUGCGCAUACAUGGAUCCUC
modifications: 2'-F all pyrimidines
B3 came in with an activity in data set [1] not below 60 % inhibition.

B4: SEQ79 aptamer (ssRNA)
RNA: GGGAGAACUUCGACCAGAAGGAUAGCCAUGUGGAGGUGAAGACUGAAAUAAACCAUAUGUGCGCAUACAUGGAUCCUC
modifications: 2'-F all pyrimidines
With B4, the activity in data set [1] is not below 60 % inhibition.

B5: SEQ39 aptamer (ssRNA)
RNA: GGGAGAACUUCGACCAGAAGUGUGAAAAGAACCCAAAUAAAACAACAAUGUAUGUGCGCAUACAUGGAUCCUCA
modifications: 2'-F all pyrimidines
The molecule B5 registered an activity in data set [1] not below 60 % inhibition.

B6: SEQ58 aptamer (ssRNA)
RNA: B5 RNA with G22U, A40C, A42G, C43A, A45U, C46A
modifications: 2'-F all pyrimidines
B6 had an activity in data set [1] not below 60 % inhibition.

B7: SEQ51 aptamer (ssRNA)
RNA: GGGAGAACUUCGACCAGAAGUUUGAAAGAAACCCAAAAAAACAACAUAUGAACUAUGUGCGCAUACAUGGAUCCUCA
modifications: 2'-F all pyrimidines
Molecule B7 registered an activity in data set [1] not below 60 % inhibition.

B8: SEQ40 aptamer (ssRNA)
RNA: GGGAGAACUUCGACCAGAAGUUUGAAAAAAACCCAGGAAAAUGGAAGACGUAUGUGCGCAUACAUGGAUCCUCA
modifications: 2'-F all pyrimidines
On to B8, for which, in data set [1], the activity was not below 60 % inhibition.

B9: SEQ64 aptamer (ssRNA)
RNA: B8 RNA with A28G, G36A, G37A, A39C, A41U, G43A, A45C, G47C, G50A
modifications: 2'-F all pyrimidines
In the case of B9, the activity in data set [1] is not below 60 % inhibition.

B10: SEQ42 aptamer (ssRNA)
RNA: B8 RNA with G36A, G37A, A39G, A41G, U42C, G43A, A45C, C49G, G50A
modifications: 2'-F all pyrimidines
B10 yielded an activity in data set [1] not below 60 % inhibition.

B11: SEQ71 mosaic aptamer (mixed)
DNA: GGGAGAGGCAAGAATAGGGCACTTGAAAAAAACCCAAATTTACCGTCTTCAGCGTCGGGTGTGAAGAGAAGAGACATTAGGA
modifications: purines ribo, pyrimidines (C,T) deoxy
For the molecule B11, in data set [1], the activity is not below 60 % inhibition.

B12: SEQ69 mosaic aptamer (mixed)
DNA: GGGAGAGGCAAGAATAGGGCCCAGCTGAAAAAAACCTGGACGTACACCGTTCGCCGAGCGGGTGAAGAGAAGAGACATTAGGA
modifications: purines ribo, pyrimidines (C,T) deoxy
Regarding B12, in data set [1], the activity is not below 60 % inhibition.

B13: SEQ86 aptamer (ssRNA)
RNA: GGGAGAACUUCGACCAGAAGGAGUAGCCAGUGAACCUGGAAUAUGAAAAAAACCUUAUGUGCGCAUACAUGGAUCCUC
modifications: 2'-F all pyrimidines
In turn, B13 had an activity in data set [1] not below 60 % inhibition.

B14: SEQ75 aptamer (ssRNA)
RNA: GGGAGAACUUCGACCAGAAGUGAAAGAAUCUCCAAAGACAAGAUAAAAACAACCGUAUGUGCGCAUACAUGGAUCCUC
modifications: 2'-F all pyrimidines
As for B14, in data set [1], the activity was not below 60 % inhibition.

B15: SEQ62 aptamer (ssRNA)
RNA: GGGAGAACUUCGACCAGAAGUUUGAAAGAAACCCAAAUUAAAGUGAACAGUAUGUGCGCAUACAUGGAUCCUCA
modifications: 2'-F pyrimidines
The term IC50 denotes the concentration needed to halve the response being measured. Low values mean higher potency, high ones lower potency. For the molecule B15, it took 2 nM to reach half-maximal inhibition in data set [2] (IC50).

B16: SEQ37 aptamer (ssRNA)
RNA: B15 RNA with U38G, U39G, A40U, A41G, G43A, U44A, G45C, G50A
modifications: 2'-F all pyrimidines
In data set [1], B16 came in with an activity not below 60 % inhibition.

B17: SEQ41 aptamer (ssRNA)
RNA: B5 RNA with G22U, A28G, U38G, A39C, A40G, C43A, A44C, C46A, U49C
modifications: 2'-F all pyrimidines
Regarding B17, the activity in data set [1] was not below 60 % inhibition.

B18: SEQ62 aptamer (ssRNA)
RNA: B15 RNA
modifications: 2'-F all pyrimidines
As to B18, in data set [1], the activity is not below 60 % inhibition.

B19: SEQ85 aptamer (ssRNA)
RNA: GGGAGAACUUCGACCAGAAGCGGAAGCCUGCGUAACCGCAGGAUGAAAACAACCGUAUGUGCGCAUACAUGGAUCCUC
modifications: 2'-F all pyrimidines
In the case of B19, in data set [1], the activity was not below 60 % inhibition.

B20: SEQ76 aptamer (ssRNA)
RNA: GGGAGAACUUCGACCAGAAGGAUAAACGCAUGUAUUUGCAGUAUUAAAAAUGCCUUAUGUGCGCAUACAUGGAUCCUC
modifications: 2'-F all pyrimidines
Turning to B20, the activity in data set [1] was not below 60 % inhibition.

B21: SEQ52 aptamer (ssRNA)
RNA: GGGAGAACUUCGACCAGAAGUUUGAAAGAAACCCAAAUAUACAAAACACUAUGUGCGCAUACAUGGAUCCUCA
modifications: 2'-F all pyrimidines
Regarding B21, the activity in data set [1] was not below 60 % inhibition.

B22: SEQ74 mosaic aptamer (mixed)
DNA: GGGAGAGGCAAGAATAGGGCATAGTGTAGACCCCTCTCAAGATACCCCATGAATTGCCCCGTGAAGAGAAGAGACATTAGGA
modifications: purines ribo, pyrimidines (C,T) deoxy
On to B22, for which the activity in data set [1] was not below 60 % inhibition.

B23: SEQ73 mosaic aptamer (mixed)
DNA: GGGAGAGGCAAGAATAGGGCACTTGAAAAAAACCCAAAGAAAGAATACTTACCCGGCGCGTGAAGAGAAGAGACATTAGGA
modifications: purines ribo, pyrimidines (C,T) deoxy
In data set [1], B23 came in with an activity not below 60 % inhibition.

B24: SEQ72 mosaic aptamer (mixed)
DNA: GGGAGAGGCAAGAATAGGGCTGGATGGGCAGTAACCTGAAAAAAACCACCCACCTCTACCGTGAAGAGAAGAGACATTAGGA
modifications: purines ribo, pyrimidines (C,T) deoxy
B24 came in with an activity in data set [1] not below 60 % inhibition.

B25: SEQ77 aptamer (ssRNA)
RNA: GGGAGAACUUCGACCAGAAGUGAAAAAAUCUCCAGUUGCAAGACGAAACAAACCUUAUGUGCGCAUACAUGGAUCCUC
modifications: 2'-F all pyrimidines
In data set [1], B25 had an activity not below 60 % inhibition.

B26: SEQ38 aptamer (ssRNA)
RNA: GGGAGAACUUCGACCAGAAGAGAAUGAAACUCCACAAAGUACAUAAAACAUAUGUGCGCAUACAUGGAUCCUCA
modifications: 2'-F all pyrimidines
In the case of B26, the activity in data set [1] is not below 60 % inhibition.

B27: SEQ70 mosaic aptamer (mixed)
DNA: GGGAGAGGCAAGAATAGGGCTGGAAATAGAACCGCGCTGTCTTCATTAAGCCGCCCAACGGTGAAGAGAAGAGACATTAGGA
modifications: purines ribo, pyrimidines (C,T) deoxy
Turning to B27, in data set [1], the activity was not below 60 % inhibition.

B28: SEQ54 aptamer (ssRNA)
RNA: GGGAGAACUUCGACCAGAAGUCGAAAGUGAAAGAAACUCCAACGAAAGCAUAUGUGCGCAUACAUGGAUCCUCA
modifications: 2'-F all pyrimidines
Regarding B28, in data set [1], the activity was not below 60 % inhibition.

B29: SEQ68 aptamer (ssRNA)
RNA: B28 RNA with A25G, U28C, A41C, C43A, G44A, A46C, G48C, C49A, A50G
modifications: 2'-F all pyrimidines
As for B29, the activity in data set [1] was not below 60 % inhibition.

B30: SEQ80 aptamer (ssRNA)
RNA: GGGAGAACUUCGACCAGAAGUGAAAACAACCUCCCAAUAAUGAUCACAGAAAUCCUAUGUGCGCAUACAUGGAUCCUC
modifications: 2'-F all pyrimidines
In turn, B30 registered an activity in data set [1] not below 60 % inhibition.

B31: SEQ78 aptamer (ssRNA)
RNA: GGGAGAACUUCGACCAGAAGUGUGUAUUGUUCAGGGUGUGCCCAGCCUAUAACCAUAUGUGCGCAUACAUGGAUCCUC
modifications: 2'-F all pyrimidines
For the molecule B31, the activity in data set [1] is not below 60 % inhibition.

Molecule GGGAAGCCUGUGGAGCUGCAGGAUGAAAAAAACCCAAA (ssRNA, 2'-F all pyrimidines) [SEQ35 aptamer] showed an activity in data set [1] not below 60 % inhibition.

B32: SEQ83 aptamer (ssRNA)
RNA: GGGAGAACUUCGACCAGAAGUUGAAGCUUGAAAAAAACCCAGGAUUAAACAGACAGUAUGUGCGCAUACAUGGAUCCUC
modifications: 2'-F all pyrimidines
Take B32: the activity in data set [1] was not below 60 % inhibition.

B33: SEQ82 aptamer (ssRNA)
RNA: GGGAGAACUUCGACCAGAAGAGGAUGCUUGUUUGGUUACAAGCUGAAAGAAACCUUAUGUGCGCAUACAUGGAUCCUC
modifications: 2'-F all pyrimidines
For the molecule B33, the activity in data set [1] is not below 60 % inhibition.

B34: SEQ67 aptamer (ssRNA)
RNA: GGGAGAACUUCGACCAGAAGUCGAUAACGAACAAAACUCCCAAAGGAAUAUAUGUGCGCAUACAUGGAUCCUCA
modifications: 2'-F all pyrimidines
In the case of B34, in data set [1], the activity is not below 60 % inhibition.
